According to patent publication US20090036368A1, “Therapeutic Combination” (HAMLET PHARMA AB, priority 2005, published 2009):
Substitutions are numbered along the chain they refer to. Names and notes keep the numbering of the source.

B1: D87A: bovine α-lactalbumin mutant, aspartic acid at position 87 replaced by alanine (protein, UniProt P00711 20-142, looked up, variant D87A)
Alpha-lactalbumin: EQLTKCEVFRELKDLKGYGGVSLPEWVCTTFHTSGYDTQAIVQNNDSTEYGLFQINNKIWCKDDQNPHSSNICNISCDKFLDDDLTADIMCVKKILDKVGINYWLAHKALCSEKLDQWLCEKL
B2: D87N: bovine α-lactalbumin mutant, aspartic acid at position 87 replaced by asparagine (protein, UniProt P00711 20-142, looked up, variant D87N)
Alpha-lactalbumin: B1 Alpha-lactalbumin with A87N
B3: HAMLET (protein, UniProt P00709 20-142, looked up)
Alpha-lactalbumin: KQFTKCELSQLLKDIDGYGGIALPELICTMFHTSGYDTQAIVENNESTEYGLFQISNKLWCKSSQVPQSRNICDISCDKFLDDDITDDIMCAKKILDIKGIDYWLAHKALCTEKLEQWLCEKL
modifications: complex with oleic acid

Assays:
Jurkat cells [1] = test: subG1 population / DNA fragmentation by flow cytometry after PI staining; assay type: cell-based; conditions: for DNA fragmentation (sub G0/G1), substance alone: TSA 100 ng/ml or SAHA 2.5 μM
Description: Cell Cycle Analysis by cytometry—Cells were harvested, washed with PBS and then fixed in suspension in 75% cold ethanol at 4° C. for 2 hours at least. The samples were then centrifuged, washed with PBS, and treated with 0.25% triton X-100 for 10 minutes at room temperature. The cells were washed again, resuspended in 2.5 μg/ml of PI and 250 μg/ml Rnase A in PBS, and incubated at 4° C. overnight prior to measurement. Cellular fluorescence was measured using the Facscalibur flow cytometry (Becton Dickinson, San Jose, Calif.). The simple-cell populations were determinated on the basis of their fluorescence-intensity values FL2-A and FL2-W.
The effects of HAMLET on DNA fragmentation were compared between untreated cells and those pre-treated with TSA to increase acetylation. Sub G0/G1 DNA fragmentation was quantified by flow cytometry using the methodology as described in Example 1.
(§1) Cells in medium were used as controls.

[2] = test system: acetyl histone H4 in Jurkat cells; test: acetyl histone H4 by flow cytometry; assay type: cell-based; conditions: for histone acetylation (Example 5): TSA 3 hours or 18 h, HAMLET 3 h, total population
Description: Acetyl histone H4 and Cell Cycle Analysis by cytometry—Cells were harvested, washed with PBS and then fixed in suspension in 75% cold ethanol at 4° C. for 2 hours at least. The samples were then centrifuged, washed with PBS, and treated with 0.25% triton X-100 for 10 minutes at room temperature. After addition of 3 ml of PBS and centrifugation, the cells were incubated for at least 30 min in swine serum 1% (DAKO, Solna, Sweden) in PBS. After addition of 3 ml of PBS and centrifugation, the cells were incubated for 3 hours at room temperature in the presence of rabbit polyclonal anti-body to human acetyl Histone H4 (Upstate), diluted 1/500 containing 1% BSA. Cells were then washed and incubated with a FITC-conjugated swine anti-rabbit antibody (DAKO, Solna, Sweden) diluted 1/20 in PBS containing 1% BSA for 2 h. The cells were washed again, resuspended in 2.5 μg/ml of PI and 250 μg/ml Rnase A in PBS, and incubated at 4° C. overnight prior to measurement. The control was prepared identically as described above, except the presence of the histone antibody. Cellular fluorescence was measured using the Facscalibur flow cytometry (Becton Dickinson, San Jose, Calif.). The simple-cell populations were determined on the basis of their fluorescence-intensity values FL2-A and FL2-W. Then red and green emissions from each cell were separated and quantified using the standard optics of the cytometer.
The level of chromatin acetylation in Jurkat cells was quantified by flow cytometry, using specific antibodies to acetylated histone H4 (FIG. 1). To increase acetylation, the cells were treated with the HDAC inhibitor TSA (FIG. 1C, FIG. 1E line 3).
The inhibition of HDAC causes an accumulation of acetylated histones. The level of acetyl histone H4 in Jurkat cells was quantified by flow cytometry after staining with specific antibodies. The cells were counterstained with propidium iodide to visualize the change in chromatin levels. Results are presented as density plot diagrams representing the DNA content on the Y-axis between four populations of cells (Sub1, G1, S, and G2), and the degree of acetylation of Histone H4 on the X-axis.

[3] = test system: HeLa cells expressing GFP-tagged Histone H4; test: acetyl histone H4 and nuclear morphology by confocal microscopy; assay type: cell-based; conditions: TSA 100 ng/ml; vs control cells
Description: Acetyl histone H4 by confocal microscopy—Hela Cells were grown in Lab-Tek Chamber slides. Cells were washed twice in PBS, and then fixed 10 minutes in PBS formaldehyde 4%. The samples were then centrifuged, washed with PBS, and treated with 0.1% triton X-100 for 2 minutes at room temperature. After washes, cells were incubated for at least 30 min in swine serum 1% (DAKO, Solna, Sweden) in PBS. Then cells were incubated for 3 hours at room temperature in the presence of rabbit polyclonal antibody to human acetyl Histone H4 (Upstate), diluted 1/500 containing 1% BSA. Cells were then washed and incubated with an Alexa633-conjugated goat anti-rabbit antibody (Invitrogen) diluted 1/200 in PBS containing 1% BSA for 2 h. The cells were washed 3×5 min. in PBS prior to evaluation in an LSM 510 META confocal microscope (Carl Zeiss, Germany) with a 63× objective. The frequency of each chromatin patterns is shown in fold of control cells staining after counting a minimum of 30 cells in each experiment.
The effect of HAMLET and TSA on the acetylation of Histone H4 was further examined by confocal microscopy of adherent HeLa cells expressing GFP-tagged Histone H4. […] The acetylation level of histone H4 in the control cells was very weak (FIG. 9A).

A459 cells = test: subG1 DNA fragmentation by flow cytometry in A459 cells; assay type: cell-based; conditions: TSA 100 ng/ml overnight, then HAMLET 30 μM one hour; data not shown
Description: In addition, non confluent A459 cells were treated with or without TSA 100 ng/ml overnight. Then HAMLET was added for one hour at 30 μM. As before, DNA fragmentation was followed both by flow cytometry. Following PI staining (cf. Materials and methods), subG1 populations were quantified and presented as percent of the total population.

[4] = viability by trypan blue exclusion (Vi-Cell XR); conditions: human, Jurkat cells
Description: (§2) Jurkat cells were first pretreated with or without TSA 100 ng/ml during 3 or 18H and then treated by HAMLET during 3H. Viability was assessed by trypan blue exclusion using the Vi-Cell XR apparatus.
(§3) To examine if HDAC inhibitors might influence the effects of HAMLET on the viability of tumour cells, Jurkat cells were pretreated with HDAC inhibitors TSA 3 hours or 18 h and then exposed to HAMLET (FIG. 5). The cellular response to the combined treatment was compared to the response to TSA alone (3 h or 18 h) and to HAMLET (3 h). Cells in medium were used as controls. The cellular response was quantified by flow cytometry and the subG1 population was used as a measure of chromatin fragmentation and cell death (FIGS. 5 and 6A). In parallel, cell viability was assessed by ATP levels (FIG. 6B) and trypan blue exclusion (FIG. 6C).

[5] = biological activity of α-lactalbumin mutants in apo-conformation; conditions: mutant proteins stable in apo-conformation at physiologic temperatures, without cofactor
[6] = bovine α-lactalbumin mutants, Permyakov et al. 2001; cited from earlier work
Jurkat cells [7] = test: cell viability by ATP levels; assay type: cell-based; conditions: 3 h exposure, vs control cells
Description: ATP monitoring reagent (AMR) was purchased from Cambrex (Wokingham, U.K.) in the form of a ViaLight™ HS kit and was reconstituted according to the manufacturers guidelines.
as §1

[8] = test system: tailless histones and DNA; test: nucleosome assembly from tailless histones and DNA; assay type: biochemical, Drosophila melanogaster; conditions: radiolabelled 146 bp DNA fragments, gel
Description: FIG. 4. Effects of HAMLET on a mixture of tailless histones and DNA. HAMLET was added to a mixture of radiolabelled 146 bp DNA fragments and tailless histones. In the absence of HAMLET, no nucleosomes are formed (lane 1). […] Nucleosome assembly on the 146 bp fragment results in one single nucleosome species, designated N. At higher concentrations of HAMLET, more nucleosomes were formed and HAMLET associated with them to form a second band in the gel. HAMLET also dissolved the unspecific histone-DNA aggregated seen in the wells.
Histones—Native, folded histones were obtained from duck erythrocyte nuclei. Native or tailless Drosophila melanogaster histones were expressed in E. coli, purified and assembled into octamers. The fold and functional integrity of the histones were confirmed by nucleosome assembly on DNA.
Chromatin assembly—To generate nucleosomes, histone octamers (recombinant or purified from cells) were assembled on linear DNA according to the “salt jump” method (Stein, 1979). ^32P-labeled 256 bp fragments and carrier DNA (supercoiled plasmid DNA, final DNA concentration 200 μg/ml) were mixed with histones (histone:DNA weight ratio 0.4-0.6) in 2 M NaCl, 10 mM Tris-HCl (pH 7.5). The mixture was incubated for 10 min at 37° C., diluted to 0.5 M NaCl, incubated at the same temperature for 30 min, and dialyzed at 4° C. against 10 mM Tris-HCl (pH 7.5) and 1 mM EDTA for 2 h. […]

Jurkat cells [9] = test: viability by trypan blue exclusion (Vi-Cell XR); conditions: HAMLET 3 h, in comparison with control
Description: as §2, §3

| Molecule | DNA fragmentation (sub G0/G1), substance alone (Jurkat cells [1]; HAMLET 1 hour) | histone acetylation (Example 5) [2] | acetylation of Histone H4 [3] | intensity of the GFP (histone H4) staining [3] | size of the nuclei [3] | biological activity [5] | calcium binding [6] | other results |
| --- | --- | --- | --- | --- | --- | --- | --- | --- |
| CC(/C=C/C(=O)NO)=C\[C@@H](C)C(=O)c1ccc(N(C)C)cc1 [TSA, Trichostatin A] | did not stimulate DNA fragmentation | time dependent increase in histone acetylation | increase in the staining of the acetylation of histone H4 | slight increase | slight increase in the size of the nuclei |  |  | subG1 population (Jurkat cells [1]; TSA alone, 18 h): 26.13%; HAMLET-induced DNA fragmentation after HDAC inhibitor pre-treatment (Jurkat cells [1]; pre-treated with TSA 100 ng/ml or SAHA 2.5 μM for 2 hours, HAMLET 1 hour): enhanced HAMLET-induced DNA fragmentation; time of maximal effect on acetylation ([2]; TSA treatment): two hours; acetylation of histone H4, increase vs control ([2]; increased concentration of TSA without HAMLET, intact cells (subG1 removed)): 2 fold; cell death (subG1) (A459 cells): significantly increased cell death; cytotoxicity at 18 h, 100 ng/ml [4]: 24.9% |
| O=C(CCCCCCC(=O)Nc1ccccc1)NO [SAHA, suberoylanilide hydroxamic acid] | did not trigger DNA fragmentation |  |  |  |  |  |  |  |
| B1 |  |  |  |  |  | biologically inactive | totally abolish calcium binding |  |
| B2 |  |  |  |  |  | biologically inactive | still bound calcium but with lower affinity |  |
| B3 | induce DNA fragmentation | did not change the degree of acetylation | increase in the acetylation of Histone H4 | increase of the intensity of the GFP staining | marked decrease in the size of the nuclei |  |  | subG1 population (Jurkat cells [1]; HAMLET alone, 3 h): 14.58%; decrease in ATP levels (Jurkat cells [7]; HAMLET 0.1 mg/ml): 9.2%; decrease in ATP levels (Jurkat cells [7]; HAMLET 0.2 mg/ml): 41.17%; decrease in ATP levels (Jurkat cells [7]; HAMLET 0.3 mg/ml): 85.71%; histone H4 acetylation (Example 1) ([2]; low concentrations of HAMLET 1H, TSA 100 ng/ml 2H, vs medium control): decrease in histone H4 acetylation; effect on mixture of tailless histones and 146 bp DNA [8]: assembly of nucleosomes; loss of viability by trypan blue exclusion (Jurkat cells [9]): 19.7% |
